Assay results: the Immune Epitope Database (IEDB)

Key:
HLA-C*05:01 = test: IEDB peptide-MHC binding, purified MHC/direct/fluorescence; filed as Kd, often an IC50 or EC50 that approximates it; ≥ and ≤ were set here for values at or beyond the usual limits of such assays
HLA-B*51:01 [1] = test: as above; settings: source organism: Rickettsia conorii
HLA-B*15:01 [2] = test: as above
HLA-C*04:01 = test: as above; settings: source organism: Rickettsia sibirica 246
HLA-B*07:02 [3] = test: as above
HLA-B*51:01 [4] = test: IEDB peptide-MHC binding, purified MHC/competitive/fluorescence; ≥ and ≤ were set here for values at or beyond the usual limits of such assays; settings: source organism: Homo sapiens
HLA-B*58:01 [5] = test: as above; settings: source organism: Homo sapiens
HLA-B*48:01 [6] = test: IEDB peptide-MHC binding, purified MHC/competitive/fluorescence; filed as Kd, often an IC50 or EC50 that approximates it; ≥ and ≤ were set here for values at or beyond the usual limits of such assays; settings: source organism: Yersinia pestis Nepal516
HLA-B*40:01 = test: IEDB peptide-MHC binding, purified MHC/direct/fluorescence; filed as Kd, often an IC50 or EC50 that approximates it; ≥ and ≤ were set here for values at or beyond the usual limits of such assays; settings: source organism: Camelpox virus CMS
HLA-A*69:01 = test: as above; settings: source organism: Camelpox virus CMS
HLA-B*48:01 [7] = test: as above; settings: source organism: Camelpox virus CMS
HLA-B*27:05 = test: as above; settings: source organism: Camelpox virus CMS
HLA-A*11:01 = test: as above; settings: source organism: Camelpox virus CMS
HLA-B*57:01 [8] = test: as above; settings: source organism: Camelpox virus CMS
HLA-A*03:01 [9] = test: as above; settings: source organism: Camelpox virus CMS
HLA-B*46:01 = test: as above; settings: source organism: Camelpox virus CMS
HLA-A*31:01 = test: as above; settings: source organism: Camelpox virus CMS
HLA-A*01:01 = test: as above; settings: source organism: Camelpox virus CMS
HLA-B*18:01 [10] = test: as above; settings: source organism: Camelpox virus CMS
HLA-B*58:01 [11] = test: as above; settings: source organism: Camelpox virus CMS
HLA-A*26:03 = test: IEDB peptide-MHC binding, purified MHC/competitive/fluorescence; filed as Kd, often an IC50 or EC50 that approximates it; ≥ and ≤ were set here for values at or beyond the usual limits of such assays; settings: source organism: Variola virus
HLA-A*02:01 = test: as above
HLA-B*15:17 = test: as above
HLA-A*68:02 = test: as above; settings: source organism: Variola virus
HLA-A*80:01 = test: as above; settings: source organism: Escherichia coli O139:H28 str. E24377A
HLA-B*27:03 = test: as above; settings: source organism: Escherichia coli O139:H28 str. E24377A
HLA-B*39:01 = test: as above; settings: source organism: Escherichia coli O139:H28 str. E24377A
HLA-B*51:01 [12] = test: as above
HLA-A*26:01 = test: as above; settings: source organism: Escherichia coli O139:H28 str. E24377A
HLA-B*57:01 [13] = test: as above; settings: source organism: Escherichia coli O139:H28 str. E24377A
HLA-A*03:01 [14] = test: as above; settings: source organism: Escherichia coli O139:H28 str. E24377A
HLA-B*15:01 [15] = test: as above
HLA-A*02:12 = test: as above; settings: source organism: Escherichia coli O139:H28 str. E24377A
HLA-B*18:01 [16] = test: as above; settings: source organism: Escherichia coli O139:H28 str. E24377A
HLA-A*29:02 = test: as above; settings: source organism: Escherichia coli O139:H28 str. E24377A
HLA-A*25:01 = test: as above; settings: source organism: Escherichia coli O139:H28 str. E24377A
HLA-B*08:01 = test: as above; settings: source organism: Escherichia coli 536
HLA-B*07:02 [17] = test: as above; settings: source organism: Escherichia coli 536
HLA-C*12:03 = test: IEDB peptide-MHC binding, purified MHC/direct/fluorescence; filed as Kd, often an IC50 or EC50 that approximates it; ≥ and ≤ were set here for values at or beyond the usual limits of such assays; settings: source organism: human gammaherpesvirus 4
HLA-B*27:20 = test: IEDB peptide-MHC binding, purified MHC/competitive/fluorescence; filed as Kd, often an IC50 or EC50 that approximates it; ≥ and ≤ were set here for values at or beyond the usual limits of such assays; settings: source organism: human gammaherpesvirus 4
HLA-C*14:02 = test: as above; settings: source organism: human gammaherpesvirus 4
HLA-B*40:13 = test: as above; settings: source organism: human gammaherpesvirus 4
HLA-C*06:02 = test: as above; settings: source organism: human gammaherpesvirus 4
HLA-B*45:06 = test: as above; settings: source organism: human gammaherpesvirus 4
HLA-A*68:23 = test: as above; settings: source organism: human gammaherpesvirus 4
HLA-A*32:15 = test: as above; settings: source organism: human gammaherpesvirus 4
HLA-B*15:42 = test: as above; settings: source organism: human gammaherpesvirus 4
HLA-B*83:01 = test: as above; settings: source organism: human gammaherpesvirus 4
[18] = source organism: Rickettsia sibirica 246
[19] = source organism: Camelpox virus CMS
[20] = source organism: Escherichia coli O139:H28 str. E24377A
[21] = source organism: Escherichia coli 536

Sequence: FADSDNIAM
- Kd (HLA-C*05:01; [18]): ≤ 1 nM
- Kd (HLA-B*51:01 [1]): ≥ 20 µM
- Kd (HLA-B*15:01 [2]; [18]): ≥ 20 µM
- Kd (HLA-C*04:01): ≥ 20 µM
- Kd (HLA-B*07:02 [3]; source organism: Rickettsia conorii): ≥ 20 µM

Sequence: MASSPTSI
- IC50 (HLA-B*51:01 [4]): 1520 nM
- IC50 (HLA-B*58:01 [5]): 987 nM

Sequence: RMAMIPRTL
- Kd (HLA-B*48:01 [6]): 87.3 nM

Sequence: RVFDKADGK
- Kd (HLA-B*40:01): ≥ 20 µM
- Kd (HLA-A*69:01): ≥ 20 µM
- Kd (HLA-B*48:01 [7]): ≥ 20 µM
- Kd (HLA-B*27:05): ≥ 20 µM
- Kd (HLA-A*11:01): 127 nM
- Kd (HLA-B*57:01 [8]): ≥ 20 µM
- Kd (HLA-A*03:01 [9]): 78.8 nM
- Kd (HLA-B*15:01 [2]; [19]): ≥ 20 µM
- Kd (HLA-B*46:01): ≥ 20 µM
- Kd (HLA-A*31:01): 99.7 nM
- Kd (HLA-A*01:01): ≥ 20 µM
- Kd (HLA-B*07:02 [3]; [19]): ≥ 20 µM
- Kd (HLA-B*18:01 [10]): ≥ 20 µM
- Kd (HLA-B*58:01 [11]): ≥ 20 µM
- Kd (HLA-A*26:03): ≥ 20 µM
- Kd (HLA-A*02:01; source organism: Variola virus): 1050 nM
- Kd (HLA-B*15:17; source organism: Variola virus): ≥ 20 µM
- Kd (HLA-A*68:02): ≥ 20 µM

Sequence: SIPFGLMSA
- Kd (HLA-A*02:01; [20]): ≥ 20000 nM
- Kd (HLA-A*80:01): ≥ 20 µM
- Kd (HLA-B*27:03): ≥ 20 µM
- Kd (HLA-B*39:01): ≥ 20 µM
- Kd (HLA-B*15:17; [20]): ≥ 20 µM
- Kd (HLA-B*51:01 [12]; [20]): ≥ 20 µM
- Kd (HLA-A*26:01): ≥ 20 µM
- Kd (HLA-B*57:01 [13]): ≥ 20 µM
- Kd (HLA-A*03:01 [14]): ≥ 20 µM
- Kd (HLA-B*15:01 [15]; [20]): ≥ 20 µM
- Kd (HLA-A*02:12): 881 nM
- Kd (HLA-B*18:01 [16]): ≥ 20 µM
- Kd (HLA-A*29:02): ≥ 20 µM
- Kd (HLA-A*25:01): ≥ 20 µM

Sequence: SPLHVFVAV
- Kd (HLA-B*08:01): ≥ 20 µM
- Kd (HLA-B*51:01 [12]; [21]): 3.66 µM
- Kd (HLA-B*15:01 [15]; [21]): ≥ 20 µM
- Kd (HLA-B*07:02 [17]): 51.2 nM

Sequence: YAMAIRQAI
- Kd (HLA-C*05:01; source organism: human gammaherpesvirus 4): 2230 nM
- Kd (HLA-C*12:03): ≤ 1 nM
- Kd (HLA-B*27:20): 29.9 nM
- Kd (HLA-C*14:02): 42.6 nM
- Kd (HLA-B*40:13): 23.9 nM
- Kd (HLA-C*06:02): 100 nM
- Kd (HLA-B*45:06): ≥ 5 µM
- Kd (HLA-A*68:23): 190 nM
- Kd (HLA-A*32:15): 92 nM
- Kd (HLA-B*15:42): ≥ 5 µM
- Kd (HLA-B*83:01): 1020 nM
